Assay results reported in article PMC5526998, “Structural analysis of the regulatory mechanism of MarR protein Rv2887 in M. tuberculosis” (Scientific Reports, 2017).

Target: the molecule itself
Assay: crystal structure

B1: MarR family protein Rv2887 (natural protein)
chain: MGLADDAPLGYLLYRVGAVLRPEVSAALSPLGLTLPEFVCLRMLSQSPGLSSAELARHASVTPQAMNTVLRKLEDAGAVARPASVSSGRSLPATLTARGRALAKRAEAVVRAADARVLARLTAPQQREFKRMLEKLGSD
notes: also called MarR-like protein Rv2887; apo-Rv2887
  binding result: binds
